The values that follow come from PMC9396825.

The target of test [1] is Pan1-FKBP (yeast Eps15-like protein Pan1p with a C-terminal FKBP tag) (yeast) (UniProt P32521). Description: inducible peroxisome redistribution assay.
For test [2], the target named is T1, Pan1-FKBP (yeast Eps15-like protein Pan1p with a C-terminal FKBP tag) (yeast), P32521.
T1 chain: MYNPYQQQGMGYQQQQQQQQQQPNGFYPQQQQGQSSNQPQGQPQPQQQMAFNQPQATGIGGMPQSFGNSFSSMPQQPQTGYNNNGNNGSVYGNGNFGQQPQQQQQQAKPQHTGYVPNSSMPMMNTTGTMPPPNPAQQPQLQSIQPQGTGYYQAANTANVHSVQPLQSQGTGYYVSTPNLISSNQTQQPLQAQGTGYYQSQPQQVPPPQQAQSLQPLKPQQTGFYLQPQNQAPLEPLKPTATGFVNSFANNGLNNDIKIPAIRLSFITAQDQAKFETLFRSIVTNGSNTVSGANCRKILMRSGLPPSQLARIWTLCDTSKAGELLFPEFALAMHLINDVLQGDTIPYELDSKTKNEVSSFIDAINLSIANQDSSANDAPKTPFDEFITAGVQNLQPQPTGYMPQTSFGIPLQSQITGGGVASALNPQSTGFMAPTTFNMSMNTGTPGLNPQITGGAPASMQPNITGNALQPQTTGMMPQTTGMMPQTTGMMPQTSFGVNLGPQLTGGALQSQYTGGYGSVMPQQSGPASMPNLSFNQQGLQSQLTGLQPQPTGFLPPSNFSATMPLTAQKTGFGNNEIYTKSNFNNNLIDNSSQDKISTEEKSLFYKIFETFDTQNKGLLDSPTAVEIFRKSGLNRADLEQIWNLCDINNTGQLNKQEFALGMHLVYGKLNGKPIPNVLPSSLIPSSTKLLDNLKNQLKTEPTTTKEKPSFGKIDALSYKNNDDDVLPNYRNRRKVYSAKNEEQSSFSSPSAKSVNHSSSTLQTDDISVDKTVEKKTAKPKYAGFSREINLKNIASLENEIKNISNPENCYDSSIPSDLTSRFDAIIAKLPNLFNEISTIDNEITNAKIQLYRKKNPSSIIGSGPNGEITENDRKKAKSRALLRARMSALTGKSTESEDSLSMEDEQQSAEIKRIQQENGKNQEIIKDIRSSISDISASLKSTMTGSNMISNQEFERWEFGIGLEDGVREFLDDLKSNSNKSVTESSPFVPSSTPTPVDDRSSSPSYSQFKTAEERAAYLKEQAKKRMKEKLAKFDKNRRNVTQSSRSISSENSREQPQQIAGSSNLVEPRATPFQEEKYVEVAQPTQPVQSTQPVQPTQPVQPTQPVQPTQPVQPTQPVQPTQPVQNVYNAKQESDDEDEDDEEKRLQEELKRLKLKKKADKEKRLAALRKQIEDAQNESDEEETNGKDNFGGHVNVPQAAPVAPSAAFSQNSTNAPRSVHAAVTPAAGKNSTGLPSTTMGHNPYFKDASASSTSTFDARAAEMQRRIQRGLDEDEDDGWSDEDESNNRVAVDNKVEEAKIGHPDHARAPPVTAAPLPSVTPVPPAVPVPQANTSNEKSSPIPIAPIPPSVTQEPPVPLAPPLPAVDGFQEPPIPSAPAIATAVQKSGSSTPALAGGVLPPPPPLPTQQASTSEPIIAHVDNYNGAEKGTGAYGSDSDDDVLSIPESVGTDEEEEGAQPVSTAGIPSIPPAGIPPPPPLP
Nature of the test: inducible peroxisome redistribution assay. Conditions: remark: other sources report otherwise.

For the molecule “GFP-tagged Ent2p (from UniProt Q05785 1-613) (natural protein)”, in test [1], the percent localized to the peroxisome was 66.7%.
On the same count and under the same terms, then “GFP-fused Sla2p (from UniProt P33338 1-968) (natural protein)”, with 72%.
In the case of “Ent1-GFP (from UniProt Q12518 1-454) (natural protein)”, the percent localized to the peroxisome in test [1] is 64%.

B1: Sla1-GFP, P32790 1-1244 (natural protein)
chain: MTVFLGIYRAVYAYEPQTPEELAIQEDDLLYLLQKSDIDDWWTVKKRVIGSDSEEPVGLVPSTYIEEAPVLKKVRAIYDYEQVQNADEELTFHENDVFDVFDDKDADWLLVKSTVSNEFGFIPGNYVEPENGSTSKQEQAPAAAEAPAATPAAAPASAAVLPTNFLPPPQHNDRARMMQSKEDQAPDEDEEGPPPAMPARPTATTETTDATAAAVRSRTRLSYSDNDNDDEEDDYYYNSNSNNVGNHEYNTEYHSWNVTEIEGRKKKKAKLSIGNNKINFIPQKGTPHEWSIDKLVSYDNEKKHMFLEFVDPYRSLELHTGNTTTCEEIMNIIGEYKGASRDPGLREVEMASKSKKRGIVQYDFMAESQDELTIKSGDKVYILDDKKSKDWWMCQLVDSGKSGLVPAQFIEPVRDKKHTESTASGIIKSIKKNFTKSPSRSRSRSRSKSNANASWKDDELQNDVVGSAAGKRSRKSSLSSHKKNSSATKDFPNPKKSRLWVDRSGTFKVDAEFIGCAKGKIHLHKANGVKIAVAADKLSNEDLAYVEKITGFSLEKFKANDGSSSRGTDSRDSERERRRRLKEQEEKERDRRLKERELYELKKARELLDEERSRLQEKELPPIKPPRPTSTTSVPNTTSVPPAESSNNNNSSNKYDWFEFFLNCGVDVSNCQRYTINFDREQLTEDMMPDINNSMLRTLGLREGDIVRVMKHLDKKFGRENIASIPTNATGNMFSQPDGSLNVATSPETSLPQQLLPQTTSPAQTAPSTSAETDDAWTVKPASKSESNLLSKKSEFTGSMQDLLDLQPLEPKKAAASTPEPNLKDLEPVKTGGTTVPAAPVSSAPVSSAPAPLDPFKTGGNNILPLSTGFVMMPMITGGDMLPMQRTGGFVVPQTTFGMQSQVTGGILPVQKTGNGLIPISNTGGAMMPQTTFGAAATVLPLQKTGGGLIPIATTGGAQFPQTSFNVQGQQQLPTGSILPVQKTANGLISANTGVSMPTVQRTGGTMIPQTSFGVSQQLTGGAMMTQPQNTGSAMMPQTSFNAVPQITGGAMMPQTSFNALPQVTGGAMMPLQRTGGALNTFNTGGAMIPQTSFSSQAQNTGGFRPQSQFGLTLQKTGGIAPLNQNQFTGGAMNTLSTGGVLQQQQPQTMNTFNTGGVMQELQMMTTFNTGGAMQQPQMMNTFNTDGIMQQPQMMNTFNTGGAMQQPQQQALQNQPTGFGFGNGPQQSRQANIFNATASNPFGF
For the molecule B1, the percent localized to the peroxisome in test [2] was 63.3%.
